Data published in patent US20110195900A1, “PEPTIDIC PTH RECEPTOR AGONISTS” (FERRING B.V., priority 2008, published 2011).
Read-outs that look alike come from different tables or passages of the source. Non-standard residues stand in square brackets, D forms with d. Residues, ends and D or L forms follow the SMILES beside them. No end group written: not given here. 1Nal = N[C@@H](Cc1cccc2ccccc12)C(=O)O; 2Nal = N[C@@H](Cc1ccc2ccccc2c1)C(=O)O; β3hI = CC[C@H](C)[C@H](N)CC(=O)O; β3hR = N=C(N)NCCC[C@H](N)CC(=O)O; Nle = CCCC[C@H](N)C(=O)O; β3hA = C[C@H](N)CC(=O)O; Aib = CC(C)(N)C(=O)O; βAla = NCCC(=O)O

Tests used:
human PTH-1 receptor = target: T1, human PTH-1 receptor (Homo sapiens, UniProt Q03431); test: Reporter gene assay (CRE-luciferase) for agonist activity in transiently transfected HEK-293 cells; assay type: cell-based
T1 construct: expressed in transfected cells; host or cells: HEK-293
T1 sequence (Q03431 27-593): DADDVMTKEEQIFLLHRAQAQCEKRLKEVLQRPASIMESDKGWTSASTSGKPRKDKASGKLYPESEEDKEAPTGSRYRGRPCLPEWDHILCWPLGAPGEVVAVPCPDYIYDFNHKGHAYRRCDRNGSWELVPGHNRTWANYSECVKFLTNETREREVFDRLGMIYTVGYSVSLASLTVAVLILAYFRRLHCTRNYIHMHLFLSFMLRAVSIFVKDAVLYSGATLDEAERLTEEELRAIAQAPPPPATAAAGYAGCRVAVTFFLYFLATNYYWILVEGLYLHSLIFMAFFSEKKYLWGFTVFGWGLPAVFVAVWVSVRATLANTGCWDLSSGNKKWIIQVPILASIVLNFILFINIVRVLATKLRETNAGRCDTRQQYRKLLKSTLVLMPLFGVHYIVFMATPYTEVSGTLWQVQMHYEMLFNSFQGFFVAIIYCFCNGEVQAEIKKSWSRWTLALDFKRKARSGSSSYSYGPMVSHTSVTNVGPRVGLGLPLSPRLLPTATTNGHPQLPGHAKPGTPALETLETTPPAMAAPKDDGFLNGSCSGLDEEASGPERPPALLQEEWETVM
Outline: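 HEK-293 cells transiently transfected with SV40-driven human PTH-1 receptor and CRE-luciferase reporter, exposed to serial compound dilutions for 4-5 h, then lysed for luciferase readout; efficacy and EC50 by non-linear regression, PTH (1-34) as internal control, n≥3. Selectivity measured in analogous human PTH-2 receptor luciferase reporter assays.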

[1] = target: human parathyroid hormone receptor 2 (human, UniProt P49190); test: cell-based or functional assay
[2] = target: human parathyroid hormone receptor 1 (human, UniProt Q03431); test: cell-based or functional assay
[3] = Table 4 comparison data, ratio of EC50 values

CCCC[C@H](NC(=O)[C@H](CC(C)C)NC(=O)[C@H](CCC(N)=O)NC(=O)[C@@H](NC(=O)[C@H](CCC(=O)O)NC(=O)[C@H](CO)NC(=O)[C@@H](NC(=O)C(C)(C)N)C(C)C)[C@@H](C)CC)C(=O)N[C@@H](Cc1c[nH]cn1)C(=O)N[C@@H](CCC(=O)O)C(=O)N[C@@H](CC(C)C)C(=O)NCC(=O)N[C@@H](CCCCN)C(=O)N[C@@H](Cc1c[nH]cn1)C(=O)N[C@@H](CC(C)C)C(=O)N[C@@H](CCCCN)C(=O)N[C@@H](CO)C(=O)N[C@H](CC(=O)N[C@@H](CCC(=O)O)C(=O)N[C@@H](CCCNC(=N)N)C(=O)N[C@H](C(=O)N[C@@H](CCC(=O)O)C(=O)N[C@@H](Cc1cccc2ccccc12)C(=O)N[C@@H](CC(C)C)C(=O)N[C@@H](CCCNC(=N)N)C(=O)N[C@@H](CCCCN)C(=O)N[C@@H](CC(C)C)C(=O)N[C@@H](CC(C)C)C(=O)N[C@@H](CCC(N)=O)C(=O)N[C@@H](CCC(=O)O)C(=O)N[C@H](C(=O)N[C@@H](Cc1c[nH]cn1)C(=O)N[C@@H](CCC(=O)O)C(=O)N[C@@H](CCCCN)C(N)=O)C(C)C)C(C)C)[C@@H](C)CC [SEQ ID NO: 50, [Aib^1, Nle^8, Glu^10, Lys^16, β-hIle^18,1-Nal^23, Leu^27, Glu^30, Glu^33, Lys^34] hPTH(1-34)-NH2] (H-[Aib]VSEIQL[Nle]HELGKHLKS[β3hI]ERVE[1Nal]LRKLLQEVHEK-NH2; N-terminus assumed)
EC50 (human PTH-1 receptor): 0.04 nM | hPTHR-2/hPTHR-1 (human PTH-1 receptor; Table 3, ratio of EC50 values, selectivity for hPTH-1 receptor over hPTH-2 receptor): 22

CCCC[C@H](NC(=O)[C@H](CC(C)C)NC(=O)[C@H](CCC(N)=O)NC(=O)[C@@H](NC(=O)[C@H](CCC(=O)O)NC(=O)[C@H](CO)NC(=O)[C@@H](NC(=O)[C@@H](N)CO)C(C)C)[C@@H](C)CC)C(=O)N[C@@H](Cc1c[nH]cn1)C(=O)N[C@@H](CC(N)=O)C(=O)N[C@@H](CC(C)C)C(=O)NCC(=O)N[C@@H](CCCCN)C(=O)N[C@@H](Cc1c[nH]cn1)C(=O)N[C@@H](CC(C)C)C(=O)N[C@@H](CC(N)=O)C(=O)N[C@@H](CO)C(=O)N[C@@H](C)CC(=O)N[C@@H](CCC(=O)O)C(=O)N[C@@H](CCCNC(=N)N)C(=O)N[C@H](C(=O)N[C@@H](CCC(=O)O)C(=O)N[C@@H](Cc1ccc2ccccc2c1)C(=O)N[C@@H](CC(C)C)C(=O)N[C@@H](CCCNC(=N)N)C(=O)N[C@@H](CCCCN)C(=O)N[C@@H](CCCCN)C(=O)N[C@@H](CC(C)C)C(=O)N[C@@H](CCC(N)=O)C(=O)N[C@@H](CC(=O)O)C(=O)N[C@H](C(=O)N[C@@H](Cc1c[nH]cn1)C(=O)N[C@@H](CC(N)=O)C(=O)N[C@@H](Cc1ccccc1)C(N)=O)C(C)C)C(C)C [SEQ ID NO: 52, [Nle^8, β-hAla^18,2-Nal^23] hPTH (1-34)-NH2] (H-SVSEIQL[Nle]HNLGKHLNS[β3hA]ERVE[2Nal]LRKKLQDVHNF-NH2)
Selectivity hPTHR-2/hPTHR-1 (human PTH-1 receptor; [3]): 215

CCCC[C@H](NC(=O)[C@H](CC(C)C)NC(=O)[C@H](CCC(N)=O)NC(=O)[C@@H](NC(=O)[C@H](CCC(=O)O)NC(=O)[C@H](CO)NC(=O)[C@@H](NC(=O)[C@@H](N)CO)C(C)C)[C@@H](C)CC)C(=O)N[C@@H](Cc1c[nH]cn1)C(=O)N[C@@H](CC(N)=O)C(=O)N[C@@H](CC(C)C)C(=O)NCC(=O)N[C@@H](CCCCN)C(=O)N[C@@H](Cc1c[nH]cn1)C(=O)N[C@@H](CC(C)C)C(=O)N[C@@H](CC(N)=O)C(=O)N[C@@H](CO)C(=O)N[C@H](CC(=O)N[C@@H](CCC(=O)O)C(=O)N[C@@H](CCCNC(=N)N)C(=O)N[C@H](C(=O)N[C@@H](CCC(=O)O)C(=O)N[C@@H](Cc1ccc2ccccc2c1)C(=O)N[C@@H](CC(C)C)C(=O)N[C@@H](CCCNC(=N)N)C(=O)N[C@@H](CCCCN)C(=O)N[C@@H](CCCCN)C(=O)N[C@@H](CC(C)C)C(=O)N[C@@H](CCC(N)=O)C(=O)N[C@@H](CC(=O)O)C(=O)N[C@H](C(=O)N[C@@H](Cc1c[nH]cn1)C(=O)N[C@@H](CC(N)=O)C(=O)N[C@@H](Cc1ccccc1)C(N)=O)C(C)C)C(C)C)[C@@H](C)CC [SEQ ID NO: 53, [Nle^8, β-hIle^18,2-Nal^23] hPTH (1-34)-NH2] (H-SVSEIQL[Nle]HNLGKHLNS[β3hI]ERVE[2Nal]LRKKLQDVHNF-NH2)
EC50 (human PTH-1 receptor; Table 4 comparison data, HEK-293 cells, CRE-luciferase, read-out: hPTHR-1 EC50): 0.25 nM | Selectivity hPTHR-2/hPTHR-1 (human PTH-1 receptor; [3]): 170

CCCC[C@H](NC(=O)[C@H](CC(C)C)NC(=O)[C@H](CCC(N)=O)NC(=O)[C@@H](NC(=O)[C@H](CCC(=O)O)NC(=O)[C@H](CO)NC(=O)[C@@H](NC(=O)[C@@H](N)CO)C(C)C)[C@@H](C)CC)C(=O)N[C@@H](Cc1c[nH]cn1)C(=O)N[C@@H](CC(N)=O)C(=O)N[C@@H](CC(C)C)C(=O)NCC(=O)N[C@@H](CCCCN)C(=O)N[C@@H](Cc1c[nH]cn1)C(=O)N[C@@H](CC(C)C)C(=O)N[C@@H](CC(N)=O)C(=O)N[C@@H](CO)C(=O)N[C@@H](CCCNC(=N)N)CC(=O)N[C@@H](CCC(=O)O)C(=O)N[C@@H](CCCNC(=N)N)C(=O)N[C@H](C(=O)N[C@@H](CCC(=O)O)C(=O)N[C@@H](Cc1ccc2ccccc2c1)C(=O)N[C@@H](CC(C)C)C(=O)N[C@@H](CCCNC(=N)N)C(=O)N[C@@H](CCCCN)C(=O)N[C@@H](CCCCN)C(=O)N[C@@H](CC(C)C)C(=O)N[C@@H](CCC(N)=O)C(=O)N[C@@H](CC(=O)O)C(=O)N[C@H](C(=O)N[C@@H](Cc1c[nH]cn1)C(=O)N[C@@H](CC(N)=O)C(=O)N[C@@H](Cc1ccccc1)C(N)=O)C(C)C)C(C)C [SEQ ID NO: 54, [Nle^8, β-hArg^18,2-Nal^23] hPTH (1-34)-NH2] (H-SVSEIQL[Nle]HNLGKHLNS[β3hR]ERVE[2Nal]LRKKLQDVHNF-NH2)
Selectivity hPTHR-2/hPTHR-1 (human PTH-1 receptor; [3]): 147

SVSEIQL[Nle]HNLGKHLNS[β3hI]ERVE[1Nal]LRKLLQDV-NH2 [[Nle^8, β-hIle^18, 1-Nal^23, Leu^27] hPTH-(1-31)-NH2]
hPTHR-2 EC50 (nM), luciferase reporter gene assay [1]: 32 nM | hPTHR-1 EC50 (nM), CRE-luciferase reporter gene assay [2]: 0.09 nM

[Aib]VSEIQL[Nle]HNLGKHLNS[β3hI]ERVE[1Nal]LRKLLQDV-NH2 [[Aib^1, Nle^8, β-hIle^18, 1-Nal^23, Leu^27] hPTH (1-31)-NH2]
hPTHR-2 EC50 (nM), luciferase reporter gene assay [1]: 18 nM | hPTHR-1 EC50 (nM), CRE-luciferase reporter gene assay [2]: 0.05 nM

[Aib]VSEIQL[Nle]HSLGKHLK[βAla][Nle]ERVE[1Nal]LRKLLQRVHEE-NH2
hPTHR-2 EC50 (nM), luciferase reporter gene assay [1]: 7 nM | hPTHR-1 EC50 (nM), CRE-luciferase reporter gene assay [2]: 0.03 nM

[Aib]VSEIQL[Nle]HELGKHLKS[β3hI]ERVE[1Nal]LRKLLQEVHEK-NH2 [[Aib^1, Nle^8, Glu^10, Lys^16, β-hIle^18, 1-Nal^23, Leu^27, Glu^30, Glu^33, Lys^34] hPTH(1-34)-NH2]
hPTHR-2 EC50 (nM), luciferase reporter gene assay [1]: 1 nM | hPTHR-1 EC50 (nM), CRE-luciferase reporter gene assay [2]: 0.04 nM
